Measured values from PMC5100602.

Target: Gk-S15 (ribosomal protein S15) (Geobacillus kaustophilus) (UniProt Q5L0I3)
Test: filter binding
Settings: SELEX Binding Buffer A: 50 mM Tris/acetate pH 7.5, 20 mM Mg-acetate, 270 mM KCl, 5 mM DTT, 0.02% BSA, 25 C, 30 min; filter binding (nitrocellulose/nylon) as …

Gk-mRNA
Kd: 0.7 nM
